We go through two molecules from patent US20110008340A1 (published 2011).

In one test the target is T1, TSR5 peptide (human).
T1 construct: Synthetic peptide 'corresponding to TSR5'; also called TSR5 segment of properdin
T1 peptide: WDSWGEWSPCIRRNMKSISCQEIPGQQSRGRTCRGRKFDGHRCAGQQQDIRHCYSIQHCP
The test is described as follows: ELISA on plate-bound peptide. The protocol: (§1) Screening Assay: Microtiter plates were coated with peptide⁷¹⁻¹¹⁰. (2.0 μg/50 μl per well), TSR5 and TSR6 peptides in phosphate buffered saline (PBS) overnight at 4° C. After aspirating the peptide solutions, the wells were blocked with PBS containing 1% bovine serum albumin (BSA) for 2 hours at room temperature. Wells without peptide coating served as background controls. […] The plate was incubated at room temperature for 1-hour. The plate developed using standard ELISA methods described above.
(In general: In an ELISA, binding on a coated surface is turned into a signal by an enzyme label.)

Another test addresses T2, TSR6 peptide (human).
T2 construct: Synthetic peptide 'corresponding to TSR6'; also called TSR6 segment of properdin
T2 peptide: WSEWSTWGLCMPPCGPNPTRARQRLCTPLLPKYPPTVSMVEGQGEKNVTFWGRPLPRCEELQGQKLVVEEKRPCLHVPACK
Put plainly: ELISA on plate-bound peptide. The protocol: as §1

Another test deals with human C3b (human, UniProt P01024 23-667; P01024 749-1663, limits assumed). Put plainly: cell-based or functional assay.

B1: MoAb^71-110 (antibody, V domains shown)
VH: QVLLQQSAPELARPGASVKMSCTASGYIFTNYPIHWVKQRPGQGLEWIGFIDPGGGYDEPDERFRDRATLTADKSSSTAYMQLSSLTSEDSAIYYCARRGGGYYLDYWGQDTTLTVSA
VL: SIVMTQTPKFLLVSAGDRITITCKASQSVNNDVAWYQQKPGQSPKLLIYYASNRYTGVPDRFTGSGYGTDFTFTITTVKAEDLAVYFCQQDYSSPLTFGAGTKLELK
notes: Mouse monoclonal antibody from a hybridoma; also called MoAbB^71-110; anti properdin antibody clone MoAb^71-110
Turning to B1, the binding result with TSR5 peptide and with TSR6 peptide was “no binding” each time.

B2: Properdin peptide RYRRCVGWNG (99-108) (peptide)
peptide: RYRRCVGWNG
With B2, in the test with human C3b, the “IC50 of inhibition of MAC (C5b-9) formation, LPS-coated wells, 10% normal human serum” value is about 50 µg/mL.
